Test results taken from the MegaScale stability set (Tsuboyama et al. 2023).

B1: HEEH_KT_rd6_0790 (parent)
chain: SEEEEEEWRRAKERGEEIIILGILWKPNDEEAERRIKEALRRV
B2: r16_88_TrROS_Hall (parent)
chain: EVIELKIKFKTPEQREKLKEIAKKLNAEVVEEKDGEVIIRFKTPEQAERALKEAEKLGAEVEL

Variants of: B1
Assay: folding stability dG (cDNA display proteolysis); higher = more stable
Conditions: PBS, room temperature

Variant | folding stability dG [kcal/mol]
E38L | 1.39
E38W | 1.02
E38N | 1.61
E38R | 1.52
E38M | 1.47
E38H | 1.39
E38Q | 1.93
E38S | 1.67
E38F | 1.03
E38G | 1.46
E38A | 1.94
E38V | 1.46
E38Y | 0.909
E38D | 2.06
E38T | 1.41
E38I | 1.91

Variants of: B2
Assay: as above
Conditions: PBS, room temperature

Variant | folding stability dG [kcal/mol]
E16C | 4.51
A59R | 3.99
A59Q | 4.05
A22M | 4.35
T11F | 4.54
K56E | 4.28
K56M | 4.57
K56A | 4.49
G58V | 4.21
V2N | 4.22
V2W | 4.56
E32W | 4.34
E32N | 4.43
L63A | 4.17
L63V | 4.25
L57E | 4.36
E55D | 4.27
E55F | 4.59
Q14D | 4.16
R49Y | 4.93
K6Q | 4.17
K6C | 4.34
P44S | 4.49

Variant | folding stability dG [kcal/mol]
A47C | 4.46
A47R | 4.53
E4M | 4.72
N26H | 4.24
P12K | 4.4
E53Y | 4.3
E31D | 4.45
V37R | 3.03
V37A | 4.08
E13K | 4.51
K19P | 3.37
K19D | 4.31
K17H | 4.4
K17Q | 4.42
K17G | 4.38
I39R | 0.96
I39A | 4.41
E48S | 4.39
E48F | 4.72
E48N | 4.62
R40L | 4.5
R40P | 2.96
K33E | 3.99

Variant | folding stability dG [kcal/mol]
K33G | 4.36
K52T | 4.23
L5C | 4.29
K24P | 3.96
K24E | 4.43
E20N | 4.25
G35E | 4.14
A50P | 2.96
L25M | 4.28
I38D | 3.82
E36I | 4.32
E62M | 4.24
V29F | 4.23
V29D | 4.14
F9K | 2.75
F9V | 4.27
F9D | 3.45
F9C | 4.19
R15W | 4.66
R15G | 3.95
K42E | 3.81
Q46A | 4.28
